Target: His-tagged human Rac1 recombinant protein (human, UniProt P63000 1-192)
Assay: MALDI MS, linear mode acquisition

binding result | Binder
binds | HRKKRRQRRRQFPGEYIPTVF [NipR2 (nitration inhibitory peptide for the Rho GTPases 2)]
binds | HRKKRRQRRRQFPGEFIPTVF [NipR2F (phenylalanine-substituted control peptide)]
